Experimental data from the supplement of paper PMC11865577.

Legend:
Assay in all cases: pull-down binding Z-score (relative to library population); higher = stronger binding
[1] = test system: TO-3-N3 (biotin conjugate); conditions: RNA library: Library-2
Method in brief: (§1)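 An RNA library (1 μg) carrying a Cy5 or Cy3 end label was heat-folded in phosphate/NaCl/KCl buffer, then incubated for 60 min at 25 °C with streptavidin beads loaded with 100 pmol of biotin-conjugated small molecule. The beads were washed three times, and bound RNA was released in hot SDS and hybridised to a DNA barcode microarray for 20 h at 55.5 °C. Each binding score was derived by subtracting the signal from beads without compound, averaging the barcoded replicate probes after removing the highest and lowest, and expressing the result as a Z-score relative to the library mean and standard deviation.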

[2] = test system: TO-3-N3-2 (biotin conjugate); conditions: RNA library: Library-2
Method in brief: as §1

TO-N3 (biotin conjugate) = conditions: RNA library: Library-2
Method in brief: as §1

[3] = test system: G-clamp-N3 (biotin conjugate); conditions: RNA library: Library-1 (pre-miRNA loops + repeats)
Method in brief: as §1

[4] = test system: TO-N3-2 (biotin conjugate); conditions: RNA library: Library-2
Method in brief: as §1

Sequence	pull-down binding Z-score [1]	pull-down binding Z-score [2]	pull-down binding Z-score (TO-N3 (biotin conjugate))	pull-down binding Z-score [3]	pull-down binding Z-score [4]
CCAAGGUUGUGCUUUUAGGAAAUGUUGGCUGUCCUGCGG [hsa-mir-5739]	-0.448	0.205	-0.157	0.485	0.49
GCUAACUGUGACCUUAGC [hsa-mir-4729]	0.00513	-0.181	-0.187	-0.373	-0.478
AAGUAGUUGGCGUCUUCAGAGACACUU [hsa-mir-643]	0.57	0.0519	0.531	-0.0629	0.0279
GAAGCUGUAAGGUGUUCAGAGGAGCUUU [hsa-mir-30e]	0.57	0.908	0.977	2.63	1.1
GGUGGGGGCUCUGAGUGGGGAAAGUGGGGGCCUAGGGGAGGUCACAGU [hsa-mir-4259]	4.45	3.57	4.21	0.943	2.4
UGUCUUGUAGCCAGGAUAUUGUUUUAAAGAA [hsa-mir-4668]	-0.404	0.00983	-0.338	-0.739	-0.355
CUGAGAGGUUUACAUUUCUC [hsa-mir-128-1]	-0.664	-0.672	-0.648	-1.07	-0.0343
UGUAAAAUGUAAUAACAUUUCUUAUGUUUAAAACACUUUACA [hsa-mir-4801]	-0.755	-0.401	-0.783	-0.257	-1.14
GCUUCCGCUCUGCAGAGGC [hsa-mir-6822]	0.134	-0.487	0.0168	-0.531	-0.438
GCAGAUUCUCUCUCUC [hsa-mir-4279]	0.105	-0.0368	0.189	-1.39	0.316
GGCAGGUGCCUCCGUGUUGCCGAACCCUCCU [hsa-mir-6761]	0.358	0.116	0.998	-0.447	1.74
GGGUGGGCGGGGGCGGCCGGUGGGAACCCCGCCCCGCCCCGCGCCCGCACUCACCC [hsa-mir-7108]	6.31	6.86	5.22	0.489	4.08
UAUGCCAUUAAAAGUAAUGGUAAA [hsa-mir-548aj-1]	-0.859	-0.508	-1.23	-0.52	-1.2
GCAGUGUCGUGGUCACAGCUUGCUGC [hsa-mir-1273h]	-0.396	-0.171	-0.0941	1.45	1.12
GGAGCCUUCCCCAGAGGAGUCAGGCC [hsa-mir-4312]	0.273	-0.0198	0.698	0.386	1.41
GCAGGUAGCUUUUUGAGAUCUACUGC [hsa-mir-106a]	-0.704	-0.00277	-0.711	0.281	-0.248
UAUAUGCUUUUUAAAUGGGGCACAGA [hsa-mir-5586]	-0.275	0.0323	-0.26	2	-0.177
AUGCUAAGUCCAUGGGCAAACAU [hsa-mir-5704]	-0.258	-0.165	-0.088	-0.176	0.235

Sequence	pull-down binding Z-score [1]	pull-down binding Z-score [2]	pull-down binding Z-score (TO-N3 (biotin conjugate))	pull-down binding Z-score [3]	pull-down binding Z-score [4]
GUUGUUGUCUUACUGCGCUCAACAAC [hsa-mir-7-2]	0.0252	-0.285	-0.0893	0.767	-0.241
GCUCUAAUAAUUUAUUCUAAUAAUAAUUUAGAUC [hsa-mir-7976]	-0.976	-0.379	-1.19	-0.269	-1.31
CUUCCCAUUUAAAAGUAAUGGCACA [hsa-mir-603]	0.893	0.425	0.861	-2.03	0.104
CUCUGUAGUUUUCUUAUAGUG [hsa-mir-644a]	-0.635	-0.532	-0.566	-0.255	-0.669
UCUGGGGAGAGAGUCCUCUUUUCAGC [hsa-mir-8082]	0.432	-0.234	0.571	-0.804	0.614
CUCUCCUCCAGCUCAGCUGGUCAGGAGAG [hsa-mir-3160-1]	1.09	-0.0211	0.959	-0.259	-0.0869
UGCUAUUACUUGUAUUUAUUUGUAAUGCA [hsa-mir-548ab]	-0.524	-0.88	-1.33	-0.547	-1.59
UGCUGUGAGCUAGCCAGCAG [hsa-mir-5693]	-0.0213	0.0593	0.614	-0.44	0.91
CCUUCCAAUACCUGUAAGCAGAAGG [hsa-mir-3158-2]	0.0988	0.0627	0.0957	0.355	0.397
GUUGUUUUUAGAUAACUAAAUCGACAAC [hsa-mir-7-1]	0.721	0.0396	0.59	0.109	0.0256
UGACUCAGAUCU [hsa-mir-759]	-0.321	-0.249	-0.271	-1.38	-0.155
AAGCUGUGUGUGUCCAGC [hsa-mir-4732]	0.132	-0.101	0.33	-0.258	0.52
UGGACAGAAAUUUCCUUUUGAGGAAAUCUUUCCC [hsa-mir-4308]	-0.486	-0.309	-0.671	-0.543	-0.367
ACAAUUAUGAAAGAAAAGAAAUUGU [hsa-mir-3611]	-0.386	0.327	-0.636	0.163	-0.566
CCCAGCUUUGUGACUGUAAGUGUUGGA [hsa-mir-184]	0.669	0.088	0.723	0.351	0.734
AUUGCAUGUUCUGGUGGUACCCAUGCAAU [hsa-mir-33a]	0.18	0.0325	0.127	-0.215	0.382
UUUGUCAUUACUUUAAUUACUUUACGUUUCAUUAAUGACAAA [hsa-mir-548h-4]	-1.23	-0.563	-1.43	-0.754	-1.46
UGUGGUCACCCACUCU [hsa-mir-4316]	-0.237	-0.0165	0.0225	-0.668	0.297
